Measured values from publication PMC12797046.

B1: LATS1: 4A (protein)
parent chain: MKRSEKPEGYRQMRPKTFPASNYTVSSRQMLQEIRESLRNLSKPSDAAKAEHNMSKMSTEDPRQVRNPPKFGTHHKALQEIRNSLLPFANETNSSRSTSEVNPQMLQDLQAAGFDEDMVIQALQKTNNRSIEAAIEFISKMSYQDPRREQMAAAAARPINASMKPGNVQQSVNRKQSWKGSKESLVPQRHGPPLGESVAYHSESPNSQTDVGRPLSGSGISAFVQAHPSNGQRVNPPPPPQVRSVTPPPPPRGQTPPPRGTTPPPPSWEPNSQTKRYSGNMEYVISRISPVPPGAWQEGYPPPPLNTSPMNPPNQGQRGISSVPVGRQPIIMQSSSKFNFPSGRPGMQNGTGQTDFMIHQNVVPAGTVNRQPPPPYPLTAANGQSPSALQTGGSAAPSSYTNGSIPQSMMVPNRNSHNMELYNISVPGLQTNWPQSSSAPAQSSPSSGHEIPTWQPNIPVRSNSFNNPLGNRASHSANSQPSATTVTAITPAPIQQPVKSMRVLKPELQTALAPTHPSWIPQPIQTVQPSPFPEGTASNVTVMPPVAEAPNYQGPPPPYPKHLLHQNPSVPPYESISKPSKEDQPSLPKEDESEKSYENVDSGDKEKKQITTSPITVRKNKKDEERRESRIQSYSPQAFKFFMEQHVENVLKSHQQRLHRKKQLENEMMRVGLSQDAQDQMRKMLCQKESNYIRLKRAKMDKSMFVKIKTLGIGAFGEVCLARKVDTKALYATKTLRKKDVLLRNQVAHVKAERDILAEADNEWVVRLYYSFQDKDNLYFVMDYIPGGDMMSLLIRMGIFPESLARFYIAELTCAVESVHKMGFIHRDIKPDNILIDRDGHIKLTDFGLCTGFRWTHDSKYYQSGDHPRQDSMDFSNEWGDPSSCRCGDRLKPLERRAARQHQRCLAHSLVGTPNYIAPEVLLRTGYTQLCDWWSVGVILFEMLVGQPPFLAQTPLETQMKVINWQTSLHIPPQAKLSPEASDLIIKLCRGPEDRLGKNGADEIKAHPFFKTIDFSSDLRQQSASYIPKITHPTDTSNFDPVDPDKLWSDDNEEENVNDTLNGWYKNGKHPEHAFYEFTFRRFFDDNGYPYNYPKPIEYEYINSQGSEQQSDEDDQNTGSEIKNRDLVYV
B2: LATS1: LATS1-4A (protein)
parent chain: B1 parent chain

What was measured:
[1] = cycloheximide chase, degradation rate; conditions: glycan lost; control: LATS1-WT
[2] = HA-Ub co-transfection, MG-132, anti-MYC IP, blot; conditions: glycan lost; control: LATS1-WT
[3] = Nub-Gal4 overexpression, wing area; conditions: glycan lost; control: Nub > LATS1, standard medium
[4] = Nub-Gal4 overexpression, wing area, no-glucose medium; conditions: glycan lost; control: Nub > LATS1, glucose-free medium

Protein	degradation_or_half_life [1]	other: ubiquitination [2]	other: Drosophila wing size [3]	other: Drosophila wing size [4]
B1	decreases	decreases	–	–
B2	–	–	decreases	no change
